Measurements: patent US5928931A, “Isolation, purification and cloning of retinol dehydratase” (Cornell Research Foundation, Inc., priority 1997, dated 1999)

T1: retinol dehydratase (Spodoptera frugiperda, UniProt Q26490)
T1 sequence (Q26490 1-351): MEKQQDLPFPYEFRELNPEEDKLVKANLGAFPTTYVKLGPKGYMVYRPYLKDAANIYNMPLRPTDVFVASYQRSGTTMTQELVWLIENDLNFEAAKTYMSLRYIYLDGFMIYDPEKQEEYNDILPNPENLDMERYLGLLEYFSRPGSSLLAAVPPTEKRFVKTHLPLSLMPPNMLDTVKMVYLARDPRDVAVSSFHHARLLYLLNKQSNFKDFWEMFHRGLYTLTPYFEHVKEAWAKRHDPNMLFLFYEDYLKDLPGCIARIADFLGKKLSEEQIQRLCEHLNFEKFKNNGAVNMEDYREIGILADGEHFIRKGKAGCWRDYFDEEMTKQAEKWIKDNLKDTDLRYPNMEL


Legend:
NIH 3T3 cells = assay: Activation of resting serum-starved NIH 3T3 cells ([3H]thymidine incorporation); assay type: cell-based
Description: FIGS. 6A and 6B show the activation of resting NIH 3T3 cells. In FIG. 6(a), one to four day serum-starved cells activated by serum, retinol, 14-HRR, and the peptide growth factors epidermal growth factor ("EGF") and platelet derived growth factor ("PDGF") are shown. […] NIH 3T3 cells were grown to confluence in Dulbecco's minimal essential medium ("DMEM") containing 10% fetal calf serum in 96-well microliter plates. All media were supplemented with 2 mM glutamine and 100 U/ml of penicillin/streptomycin. Cells were washed once with phosphate-buffered saline solution and incubated for one to four days in 200 μl/well of DMEM media/0.1% fetal calf serum ("starvation media"). On the indicated day, starvation media was replaced with 200 μl/well of insulin, transferrin, linoleic acid, bovine serum albumin ("ITLB") media, with or without fetal calf serum, retinoids, or peptide growth factors at the indicated concentrations. ITLB media is RPMI media (Gibco BRL, Grand Island, N.Y.) containing […] bovine serum albumin (1.2 mg/ml), linoleic acid (10^-6 M), bovine insulin (5 μg/ml), and transferrin (5 μg/ml). [^3 H]thymidine (1.2 μCi per well) was added at the beginning of the experiment, and the thymidine incorporation was determined after 24 h. […]
Cells starved for 4 days in DMEM/0.1% fetal calf serum were activated with 5% fetal calf serum, 2 μM retinol, or 2 μM 14-HRR, and the cumulative thymidine incorporation was determined at the indicated time points. Δcpm corresponds to the increase in [^3 H]thymidine incorporation in the two hour period before the time point shown. […]
Cells starved for 4 days in DMEM/0.1% fetal calf serum were activated with 5% fetal calf serum, 2 μM retinol, or 2 μM 14-HRR. […] The cumulative [^3 H]thymidine incorporation was determined after 24 hours. […]
Confluent NIH 3T3 cells were starved for 1 to 4 days in medium containing 0.1% serum. […] Activation was quantitated by measuring the [^3 H] thymidine incorporated into newly synthesized DNA during the subsequent 24 hours (FIG. 6A). […]

retinol dehydratase [1] = target: T1, retinol dehydratase; assay: Retinol dehydratase assay ([3H]-retinol to [3H]-AR, HPLC radiomatic detection); kinetic studies; assay type: biochemical; details: bacterially expressed recombinant enzyme
Description: 20-50 μl aliquots of supernatant/column fractions were incubated with 1 μCi of [^3 H]-retinol and 20 μl of high speed supernatant from sonicated Sf-9 cells in 200 μl assay buffer (20 mM Tris.Cl pH 7.5, 150 mM NaCl, I mM MgCI2) for 15-60 minutes at 24° C. […] Samples were delipidated and [^3 H]-AR production quantified by a liquid scintillation radiomatic detector in series with HPLC gradient elution (20 mM Tris pH 7.4/methanol/chloroform) from a C-18 Reverse Phase 201TP54 column (Vydac, Separations Group, Hesperia, Calif.) as described by McClean et al., Clin. Chem., 28:693-96 (1982) and Derguini et al., Angew. Che. Int. Ed. Engl., 33:1839-41 (1994), which are hereby incorporated by reference.
Kinetic studies were performed with native retinol dehydratase (0.1 μg/assay) and ^3 H-retinol in the presence of constant substrate carrier protein concentrations, either delipidated BSA or recombinant cellular retinol binding protein ("CRBP"). The initial rate of AR synthesis at different substrate concentrations was determined by radiomatic detection of ^3 H-AR after HPLC separation.
Carrier protein for retinol (delipidated bovine serum albumin or recombinant human CRBP) was added to reduce nonspecific binding and micelle formation.

retinol dehydratase [2] = target: T1, retinol dehydratase; assay: Fluorimetric titration of recombinant retinol dehydratase with retinol (direct binding, no cofactor); details: recombinant enzyme; for number of (high affinity) binding sites per molecule: retinol titration
Description: Binding was monitored by following the fluorescence enhancement of retinol (excitation--330 nm; emission--480 nm, open circles). The fluorescence contribution of free retinol was determined by titration with retinol in the absence of protein (open squares), analyzed by linear regression analysis (dashed line) and subtracted from the titration data to give the corrected titration binding curve (closed circles). The data were fitted (solid line) using an equation derived from simple binding theory.
Retinol is an efficient fluorophore and its interactions with proteins are often accompanied by a marked increase in its fluorescence. This phenomenon reflects movement of retinol from the aqueous solution to a less polar and more restrictive environment within a protein binding site, and has been extensively used to monitor the binding of retinol to binding proteins, as described by Cogan et al., Eur. J. Biochem., 65:71-75 (1976); Ong et al., J. Biol Chem., 253:828-32 (1978); and Noy et al., Biochemistry, 30:6380-86 (1991), which are hereby incorporated by reference.
Recombinant retinol dehydratase (lμM) was titrated with retinol from a concentrated solution in ethanol (final ethanol concentration <2.0%). Binding was monitored by following the fluorescence enhancement of retinol (excitation--330 nm; emission--480 nm, open circles). The fluorescence contribution of free retinol was determined by titration with retinol in the absence of protein (FIG. 5B, open squares), analysed by linear regression analysis (FIG. 5B, dashed line) and subtracted from the titration data to give the corrected titration binding curve (FIG. 5B, closed circles). The data were fitted (FIG. 5B, solid line) using an equation derived from simple binding theory as described in Norris et al., Biochim Bioshys Acta, 1209:10-8 (1994), which is hereby incorporated by reference, to yield the number of binding sites (8%) and the equilibrium dissociation constant (Kd =9 nM).
The derived Kd should thus be considered an upper limit for the actual value. Nevertheless, it agreed with the Km, confirming retinol dehydratase has a high affinity binding site for free retinol.

Molecule	activation of growth arrested cells (thymidine incorporation over 24 hours) (NIH 3T3 cells; cells deprived of serum for 3 or 4 days)	entry of treated cells into the S phase (NIH 3T3 cells; data not shown)	activation of resting cells (NIH 3T3 cells; ≤500 ng/ml)	Vmax as compared to the native enzyme purified from Sf-21 (retinol dehydratase [1]) [%]	range of binding sites (retinol dehydratase [2]; n=3)	number of (high affinity) binding sites per molecule (retinol dehydratase [2]) [%]	number of (high affinity) binding sites per molecule (retinol dehydratase [2]; listed as recombinant enzyme) [%]	binding sites (retinol dehydratase [2]; titration curves, n=3)
EGF: epidermal growth factor, purchased (protein, UniProt P01133 23-1207, looked up, Pro-epidermal growth factor, epidermal growth factor, purchased) Pro-epidermal growth factor: PQHWSCPEGTLAGNGNSTCVGPAPFLIFSHGNSIFRIDTEGTNYEQLVVDAGVSVIMDFHYNEKRIYWVDLERQLLQRVFLNGSRQERVCNIEKNVSGMAINWINEEVIWSNQQEGIITVTDMKGNNSHILLSALKYPANVAVDPVERFIFWSSEVAGSLYRADLDGVGVKALLETSEKITAVSLDVLDKRLFWIQYNREGSNSLICSCDYDGGSVHISKHPTQHNLFAMSLFGDRIFYSTWKMKTIWIANKHTGKDMVRINLHSSFVPLGELKVVHPLAQPKAEDDTWEPEQKLCKLRKGNCSSTVCGQDLQSHLCMCAEGYALSRDRKYCEDVNECAFWNHGCTLGCKNTPGSYYCTCPVGFVLLPDGKRCHQLVSCPRNVSECSHDCVLTSEGPLCFCPEGSVLERDGKTCSGCSSPDNGGCSQLCVPLSPVSWECDCFPGYDLQLDEKSCAASGPQPFLLFANSQDIRHMHFDGTDYGTLLSQQMGMVYALDHDPVENKIYFAHTALKWIERANMDGSQRERLIEEGVDVPEGLAVDWIGRRFYWTDRGKSLIGRSDLNGKRSKIITKENISQPRGIAVHPMAKRLFWTDTGINPRIESSSLQGLGRLVIASSDLIWPSGITIDFLTDKLYWCDAKQSVIEMANLDGSKRRRLTQNDVGHPFAVAVFEDYVWFSDWAMPSVMRVNKRTGKDRVRLQGSMLKPSSLVVVHPLAKPGADPCLYQNGGCEHICKKRLGTAWCSCREGFMKASDGKTCLALDGHQLLAGGEVDLKNQVTPLDILSKTRVSEDNITESQHMLVAEIMVSDQDDCAPVGCSMYARCISEGEDATCQCLKGFAGDGKLCSDIDECEMGVPVCPPASSKCINTEGGYVCRCSEGYQGDGIHCLDIDECQLGEHSCGENASCTNTEGGYTCMCAGRLSEPGLICPDSTPPPHLREDDHHYSVRNSDSECPLSHDGYCLHDGVCMYIEALDKYACNCVVGYIGERCQYRDLKWWELRHAGHGQQQKVIVVAVCVVVLVMLLLLSLWGAHYYRTQKLLSKNPKNPYEESSRDVRSRRPADTEDGMSSCPQPWFVVIKEHQDLKNGGQPVAGEDGQAADGSMQPTSWRQEPQLCGMGTEQGCWIPVSSDKGSCPQVMERSFHMPSYGTQTLEGGVEKPHSLLSANPLWQQRALDPPHQMELTQ	had no effect	did not enter the S phase	unable to activate	–	–	–	–	–
Recombinant retinol dehydratase: 352 amino acid, 41.5 kDa enzyme of Sf-21 cells, expressed in bacteria with HisTag, SEQ. ID. No. 2 (protein, His tag) MEKQQDLPFPYEFRELNPEDKLVKANLGAFPTTYVKLGPKGYMVYRPYLKDAANIYNMPLRPTDVFVASYQRSGTTMTQELVWLIENDLNFEAAKTYMSLRYIYLDGFMIYDPEKQEEYNDILPNPENLDMERYLGLLEYFSRPGSSLLAAVPPTEKRFVKTHLPLSLMPPNMLDTVKMVYLARDPRDVAVSSFHHARLLYLLNKQSNFKDFWEMFHRGLYTLTPYFEHVKEAWAKRHDPNMLFLFYEDYLKDLPGCIARIADFLGKKLSEEQIQRLCEHLNFEKFKNNGAVNMEDYREIGILADGEHFIRKGKAGCWRDYFDEEMTKQAEKWIKDNLKDTDLRYPNMEL	–	–	–	10	0.06-0.08	8	7	0.07
